Target: T1, MBP-5Myc-HsSAS-6 full length (human, UniProt Q6UVJ0 1-657)
T1 construct: HsSAS-6 full length, cloned into a modified pENTR-1A-5Myc-MBP vector; also called MBP-HsSAS-6; source: Sf9 (baculovirus), purified (amylose resin); not shown: MBP, N-terminal, kept; 5Myc, N-terminal, kept
T1 sequence (looked up): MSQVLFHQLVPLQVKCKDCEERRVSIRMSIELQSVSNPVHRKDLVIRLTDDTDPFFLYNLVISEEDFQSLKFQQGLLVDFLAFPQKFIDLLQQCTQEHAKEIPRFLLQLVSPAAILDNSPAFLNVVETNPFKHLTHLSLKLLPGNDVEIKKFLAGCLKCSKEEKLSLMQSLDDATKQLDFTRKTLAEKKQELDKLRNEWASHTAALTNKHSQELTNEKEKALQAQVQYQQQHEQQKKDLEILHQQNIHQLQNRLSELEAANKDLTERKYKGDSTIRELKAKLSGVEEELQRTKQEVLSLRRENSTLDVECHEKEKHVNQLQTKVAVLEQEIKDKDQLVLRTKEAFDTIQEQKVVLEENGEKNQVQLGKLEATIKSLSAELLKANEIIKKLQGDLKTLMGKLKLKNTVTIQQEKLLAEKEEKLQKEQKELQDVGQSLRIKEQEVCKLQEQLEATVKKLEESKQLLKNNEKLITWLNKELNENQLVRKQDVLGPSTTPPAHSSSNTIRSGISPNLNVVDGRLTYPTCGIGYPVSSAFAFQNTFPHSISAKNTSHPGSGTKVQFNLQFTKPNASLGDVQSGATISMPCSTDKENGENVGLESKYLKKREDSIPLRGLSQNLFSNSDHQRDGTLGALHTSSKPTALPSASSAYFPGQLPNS
Assay: pull-down; bacterially purified STIL fragments after an in vitro kinase reaction with Plk4ΔPEST-FLAG on anti-FLAG beads (supernatant; for N3C also the FLAG-peptide eluate) incubated with MBP-HsSAS-6 full length and pulled down with amylose resin; western blot
Conditions: both partners purified

B1: STIL C fragment (a.a. 1,018–1,287) phosphorylated by Plk4ΔPEST-FLAG (domain or fragment, human, UniProt Q15468 1018-1287, looked up)
chain: NAHNVDHASVLACISPEAVISGLNCMSFANVGMSGLSPNGVDLSMEANAIALKYLNENQLSQLSVTRSNQNNCDPFSLLHINTDRSTVGLSLISPNNMSFATKKYMKRYGLLQSSDNSEDEEEPPDNADSKSEYLLNQNLRSIPEQLGGQKEPSKNDHEIINCSNCESVGTNADTPVLRNITNEVLQTKAKQQLTEKPAFLVKNLKPSPAVNLRTGKAEFTQHPEKENEGDITIFPESLQPSETLKQMNSMNSVGTFLDVKRLRQLPKLF
modifications: phosphorylated in vitro by Plk4ΔPEST-FLAG: S1061, S1116, S1181, T1238, T1250
notes: human STIL C fragment, a.a; 1,018–1,287; also called GST-HA-STIL C; C-terminal fragment of STIL; source: E. coli BL21 gold (DE3), purified (glutathione sepharose), then phosphorylated in vitro by Plk4ΔPEST-FLAG; not shown: HA, N-terminal, kept
- binding result: binds

Reference: article PMC4220463, “Direct interaction of Plk4 with STIL ensures formation of a single procentriole per parental centriole” (Nature Communications, 2014)
